Test results as given in US20230012273A1 (Boehringer Ingelheim, published 2023).
Blank lines part the entries; values can stand above or below the binder they belong to.

Legend:
[1] = biological target: T1, full-length human SIRPβL (NP_001129316.1) on cells (human, UniProt Q5TFQ8 30-398); test: flow cytometry, Expi-CHO cells expressing full-length wild-type human SIRPβL
T1 construct: one molecule for U937 SIRPα-KO transfectants (NP_001129316.1) and Expi-CHO transfectants (Q5TFQ8); also called SIRPβ1v3; βL WT
Protocol: Expi-CHO parental cells are transduced with lentiviruses containing either full-length wild-type human SIRPβL (Q5TFQ8) or full-length human SIRPβL with a single amino acid point mutation (Table 62) and sorted to achieve matching expression levels. These cells are blocked with donkey IgG and incubated on ice with increasing concentrations of antibodies for 60 minutes, washed and stained with AF647-conjugated donkey F(ab′)₂ anti-human IgG antibodies. Stained cells are washed, fixed, and analyzed by flow cytometry. Median fluorescent intensity is determined and used as a measure of antibody binding.
A single amino acid substitution (H→D) introduced within the loop region maintained, strengthened, or facilitated antibody binding to these cells (FIG. 34B, Table 63).

[2] = biological target: T2, mouse SIRPα extracellular domain + His-tag (NP_031573) (mouse, UniProt P97797 32-373); test: SPR, Ab captured, ECD-His analyte
T2 chain: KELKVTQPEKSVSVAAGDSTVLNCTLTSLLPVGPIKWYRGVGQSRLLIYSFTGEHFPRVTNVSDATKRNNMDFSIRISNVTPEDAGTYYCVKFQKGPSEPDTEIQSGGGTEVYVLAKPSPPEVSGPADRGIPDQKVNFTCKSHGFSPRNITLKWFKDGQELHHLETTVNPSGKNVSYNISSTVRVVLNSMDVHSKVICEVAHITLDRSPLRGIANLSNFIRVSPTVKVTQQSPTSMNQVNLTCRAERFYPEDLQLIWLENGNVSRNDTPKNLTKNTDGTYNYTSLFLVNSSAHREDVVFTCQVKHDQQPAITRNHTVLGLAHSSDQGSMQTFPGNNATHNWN
Outline: (§1)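 Steps: chip deactivated with 1M ethanolamine HCl for 420 sec at 10 μl/min; anti-SIRPα antibody captured; two-fold serial dilutions of His-tagged SIRP extracellular domain injected 300 sec at 30 μl/min; dissociation monitored 600 sec. All in 1×HBS-EP+ running buffer.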

[3] = biological target: T3, cynomolgus SIRPα extracellular domain + His-tag (NP_001271679) (cynomolgus monkey); test: SPR, Ab captured, ECD-His analyte
T3 construct: also called CySIRPα NP_001271679; cynoSIRPα
T3 chain: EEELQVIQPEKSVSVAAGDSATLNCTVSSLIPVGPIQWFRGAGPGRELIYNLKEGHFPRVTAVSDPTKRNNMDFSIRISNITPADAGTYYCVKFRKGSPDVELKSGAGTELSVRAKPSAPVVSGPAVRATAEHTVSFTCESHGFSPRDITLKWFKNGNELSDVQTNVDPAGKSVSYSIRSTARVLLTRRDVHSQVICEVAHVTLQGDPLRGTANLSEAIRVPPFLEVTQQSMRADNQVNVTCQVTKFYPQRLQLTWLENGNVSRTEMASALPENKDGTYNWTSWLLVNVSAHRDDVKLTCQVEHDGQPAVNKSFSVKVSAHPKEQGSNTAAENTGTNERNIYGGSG
Outline: as §1

[4] = biological target: T4, cynomolgus SIRPα extracellular domain + His-tag (EGM_02252) (cynomolgus monkey); test: SPR, Ab captured, ECD-His analyte
T4 construct: also called CySIRPα EGM_02252; cynoSIRPα
T4 chain: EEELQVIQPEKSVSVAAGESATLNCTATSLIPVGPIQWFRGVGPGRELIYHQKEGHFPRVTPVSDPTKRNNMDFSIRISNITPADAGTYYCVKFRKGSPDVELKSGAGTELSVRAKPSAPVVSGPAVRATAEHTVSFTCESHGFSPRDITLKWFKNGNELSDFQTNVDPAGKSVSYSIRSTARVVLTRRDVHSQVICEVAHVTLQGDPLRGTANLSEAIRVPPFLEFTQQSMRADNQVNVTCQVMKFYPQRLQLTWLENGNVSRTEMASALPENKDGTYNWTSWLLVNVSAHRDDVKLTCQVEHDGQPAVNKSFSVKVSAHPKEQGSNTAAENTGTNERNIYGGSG
Outline: as §1

[5] = biological target: T5, full-length human SIRPγ (NP_061026.2) on cells (human, UniProt Q9P1W8 29-387); test: flow cytometry, CHO cells
T5 construct: also called CHO-hSIRPγ; γ WT

[6] = biological target: T6, full-length cynomolgus SIRPα (XP_015313155) on CHO cells, clone P3HD10 (cynomolgus monkey, UniProt A0A2K5VYQ9 31-507); test: flow cytometry, CHO cells
T6 construct: whole, on cells; also called XP_015313155 Clone P3HD10
T6 sequence: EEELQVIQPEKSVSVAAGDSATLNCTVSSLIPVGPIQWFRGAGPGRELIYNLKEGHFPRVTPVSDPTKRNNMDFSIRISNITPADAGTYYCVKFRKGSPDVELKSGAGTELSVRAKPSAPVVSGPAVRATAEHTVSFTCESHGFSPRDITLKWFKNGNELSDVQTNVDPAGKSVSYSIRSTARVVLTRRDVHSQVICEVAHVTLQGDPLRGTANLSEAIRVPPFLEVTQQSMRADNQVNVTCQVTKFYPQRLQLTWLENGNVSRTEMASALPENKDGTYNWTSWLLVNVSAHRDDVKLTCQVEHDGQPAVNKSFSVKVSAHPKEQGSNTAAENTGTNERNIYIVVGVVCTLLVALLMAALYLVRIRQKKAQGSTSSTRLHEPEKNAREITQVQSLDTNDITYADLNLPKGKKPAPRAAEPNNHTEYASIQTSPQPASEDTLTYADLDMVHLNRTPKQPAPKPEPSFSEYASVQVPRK
Protocol: Antibody binding to cells expressing cynomolgus (cyno) SIRPα was evaluated by flow cytometry. CHO-K1 cells expressing full-length cyno SIRPα; derived from protein sequence accession numbers (A) EGM-02252; (B) XP_015313155; or (C) NP_001271679, are blocked with donkey IgG and incubated on ice with increasing concentrations of antibodies for 60 minutes, washed and stained with AF647-conjugated donkey F(ab′)₂ anti-human IgG secondary reagent. Cells are washed, fixed, and analyzed by flow cytometry. Median fluorescent intensity is determined and used as a measure of antibody binding.

[7] = biological target: T7, recombinant human SIRPγ extracellular domain (ECD)/His protein (NP_061026.2) (human, UniProt Q9P1W8 29-360); test: ELISA, coated SIRPγ ECD/His
T7 construct: coated on ELISA plates; also called recombinant hSIRPγ; not shown: His-tag
T7 sequence (Q9P1W8 29-360): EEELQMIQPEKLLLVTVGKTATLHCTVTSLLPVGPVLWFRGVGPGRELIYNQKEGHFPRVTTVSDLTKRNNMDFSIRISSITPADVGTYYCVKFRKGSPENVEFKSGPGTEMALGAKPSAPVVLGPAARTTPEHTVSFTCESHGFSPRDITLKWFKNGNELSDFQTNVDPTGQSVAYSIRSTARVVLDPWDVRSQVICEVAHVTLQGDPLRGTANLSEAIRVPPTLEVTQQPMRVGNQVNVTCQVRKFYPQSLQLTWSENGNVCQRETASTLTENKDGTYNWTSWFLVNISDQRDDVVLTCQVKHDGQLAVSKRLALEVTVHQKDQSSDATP

T5 sequence (Q9P1W8 29-387): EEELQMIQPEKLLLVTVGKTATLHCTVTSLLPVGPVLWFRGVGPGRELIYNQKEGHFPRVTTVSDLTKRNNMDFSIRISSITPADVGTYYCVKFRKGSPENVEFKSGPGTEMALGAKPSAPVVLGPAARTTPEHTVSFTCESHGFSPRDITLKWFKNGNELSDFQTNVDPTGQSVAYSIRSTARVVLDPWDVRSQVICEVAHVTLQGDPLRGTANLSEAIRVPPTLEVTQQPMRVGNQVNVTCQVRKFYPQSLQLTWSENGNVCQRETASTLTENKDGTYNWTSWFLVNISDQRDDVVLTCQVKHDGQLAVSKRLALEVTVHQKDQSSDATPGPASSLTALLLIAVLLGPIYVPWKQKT
T1 sequence (Q5TFQ8 30-398): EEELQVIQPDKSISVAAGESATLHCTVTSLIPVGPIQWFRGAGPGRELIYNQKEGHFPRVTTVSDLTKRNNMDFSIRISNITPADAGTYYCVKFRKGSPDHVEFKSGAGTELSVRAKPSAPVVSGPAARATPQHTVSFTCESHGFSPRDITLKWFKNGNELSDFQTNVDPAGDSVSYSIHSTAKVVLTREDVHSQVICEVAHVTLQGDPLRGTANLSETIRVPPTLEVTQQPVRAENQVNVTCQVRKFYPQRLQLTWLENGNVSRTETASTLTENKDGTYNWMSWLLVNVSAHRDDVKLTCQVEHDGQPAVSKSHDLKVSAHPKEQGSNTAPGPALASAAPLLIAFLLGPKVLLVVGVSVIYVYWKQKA

binding result [1]: no binding (tested: about 67 nM)
B1: Antibody A10 (antibody, human IgG1, kappa, L234A L235A)
heavy: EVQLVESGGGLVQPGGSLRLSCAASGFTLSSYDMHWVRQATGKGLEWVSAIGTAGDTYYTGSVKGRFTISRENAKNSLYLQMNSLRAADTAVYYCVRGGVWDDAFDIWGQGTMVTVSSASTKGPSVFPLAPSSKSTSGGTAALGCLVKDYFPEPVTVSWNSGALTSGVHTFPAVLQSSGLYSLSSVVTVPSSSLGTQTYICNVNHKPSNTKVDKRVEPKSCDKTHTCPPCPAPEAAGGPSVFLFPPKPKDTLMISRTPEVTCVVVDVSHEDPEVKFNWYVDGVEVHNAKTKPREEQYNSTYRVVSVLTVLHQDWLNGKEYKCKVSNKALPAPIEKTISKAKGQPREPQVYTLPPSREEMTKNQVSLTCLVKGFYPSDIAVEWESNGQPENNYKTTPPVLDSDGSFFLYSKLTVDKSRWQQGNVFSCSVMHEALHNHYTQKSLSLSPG
light: DIQMTQSPSSLSASVGDRVTITCRASQDINNYLAWFQQKPGKAPKSLIYTASSLHSGVPSKFSGSGSGTDFTLTISSLQPEDFATYYCQQYVSYPYTFGQGTKLEIKRTVAAPSVFIFPPSDEQLKSGTASVVCLLNNFYPREAKVQWKVDNALQSGNSQESVTEQDSKDSTYSLSSTLTLSKADYEKHKVYACEVTHQGLSSPVTKSFNRGEC

binding result [2]: no binding
Kd [3]: 453 nM
Kd [4]: 201 nM
B2: Antibody A (antibody, human IgG1, kappa, L234A L235A)
heavy: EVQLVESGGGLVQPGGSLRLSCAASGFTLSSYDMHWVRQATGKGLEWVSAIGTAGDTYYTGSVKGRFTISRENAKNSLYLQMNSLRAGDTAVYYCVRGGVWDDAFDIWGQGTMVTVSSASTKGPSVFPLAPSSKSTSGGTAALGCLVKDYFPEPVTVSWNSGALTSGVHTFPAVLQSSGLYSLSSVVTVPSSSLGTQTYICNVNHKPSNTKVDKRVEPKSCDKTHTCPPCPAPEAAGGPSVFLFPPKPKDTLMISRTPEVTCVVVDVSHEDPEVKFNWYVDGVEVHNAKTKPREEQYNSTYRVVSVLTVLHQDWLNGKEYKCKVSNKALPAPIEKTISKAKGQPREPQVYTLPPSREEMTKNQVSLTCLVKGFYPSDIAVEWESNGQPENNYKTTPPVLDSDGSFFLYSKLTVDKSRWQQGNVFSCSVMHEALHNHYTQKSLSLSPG
light: B1 light

EC50 [5]: 2.7 nM
EC50 [6]: 0.5 nM
EC50 [7]: 0.1 nM
B3: Anti-SIRPα antibody KWAR23 (antibody, V domains shown)
VH: EVQLQQSGAELVKPGASVKLSCTASGFNIKDYYIHWVQQRTEQGLEWIGRIDPEDGETKYAPKFQDKATITADTSSNTAYLHLSSLTSEDTAVYYCARWGAYWGQGTLVTVSS
VL: QIVLTQSPAIMSASPGEKVTLTCSASSSVSSSYLYWYQQKPGSSPKLWIYSTSNLASGVPARFSGSGSGTSYSLTISSMEAEDAASYFCHQWSSYPRTFGAGTKLELK
